This note sets out measurements from the RNAGym collection of RNA variant scans (doi:10.7554/elife.80360).

Sequences and labels used below:
B1: HDV Ribozyme (parent)
chain: GGCCGGCAUGGUCCCAGCCUCCUCGCUGGCGCCGGCUGGGCAACAUUCCGAGGGGACCGUCCCCUCGGUAAUGGCGAAUGGGACCCA

This series covers variants of B1. The experiment in a line: self-cleavage, relative activity (ratio to wild type); higher = more cleavage; co-transcriptional.
On to G35A A77C, for which the self-cleavage came to 0.131.
The result for G35A A77U reads 0.253; that for G34C C44G, 0.0332; that for G34A G82C, 0.261.
The result for G34U G80U reads 0.128; that for G35A G54U, 0.743; that for G34C G52U, 0.155.
The result for G34C G52C reads 0.267; that for G35A C57U, 0.686; that for G35A C58G, 0.594.
Regarding G35A C58A, the self-cleavage worked out at 0.46.
For G35A C58U, the self-cleavage is 0.478.
Under G34A G81U stands 0.07; under G34U A77G, 0.086.
As for G34U A77C, the self-cleavage worked out at 0.0678.
Turning to G35A A45G, the self-cleavage stood at 0.443.
Under G34U U46A stands 0.0639; under G34U G73C, 0.289; under G34C A56U, 0.277.
Under G35A stands 0.605.
G34C A77G: the self-cleavage worked out at 0.161.
The result for G34C A77C reads 0.17.
The result for G34C A77U reads 0.125; that for G35A A51C, 0.467.
Under G35A A51U stands 0.496; under G34C G68A, 0.0692; under G35A U60C, 0.554.
For the variant G35A U60A, the self-cleavage was 0.596.
Consider G35A G52A, for which the self-cleavage is 0.47.
Under G35A G52C stands 0.409; under G35A G52U, 0.513.
In the case of G34U U47A, the self-cleavage turned out to be 0.128.
Under G34U U47G stands 0.267; under G34U G39A, 0.174.
The result for C33U U69G reads 0.807; that for C33U U69C, 0.956.
As to G34U C36A, the self-cleavage was 0.106.
For the variant G34U C36U, the self-cleavage was found to be 0.0482.
Consider G34A A42G, for which the self-cleavage amounted to 0.178.
Under G34A A42C stands 0.0354.
As for G34A A42U, the self-cleavage is 0.0326.
G35A C86G: the self-cleavage turned out to be 0.739.
G34C A43C: the self-cleavage worked out at 0.364.
Under G34C A43U stands 0.
Turning to G34A A56C, the self-cleavage is 0.151.
Under G34U G55A stands 0.114.
For G34U G55C, the self-cleavage came out at 0.102.
As to G34C C49G, the self-cleavage was found to be 0.264.
As to G35A G67U, the self-cleavage worked out at 0.361.
In the case of G35A G67A, the self-cleavage is 0.328.
Regarding G35A G67C, the self-cleavage came out at 0.564.
Under G34U C41G stands 0.0723.
The result for G34U C41A reads 0.133; that for G34U G74C, 0.138.
As for G34U G35A, the self-cleavage came out at 0.204.
Consider G34U G35C, for which the self-cleavage came out at 0.154.
Under G35A C61G stands 0.465; under G35A C61A, 0.635; under G34A G68C, 0.0978.
Under G34A G68A stands 0.144.
The result for G34A G68U reads 0.171; that for G34U U60C, 0.175; that for G34U U60G, 0.166.
For the variant G34U U60A, the self-cleavage worked out at 0.0817.
With G34U U65G, the self-cleavage amounted to 0.146.
In the case of G34U U65C, the self-cleavage turned out to be 0.197.
On to G35A G74C, for which the self-cleavage was 0.208.
Take G35A G74A: the self-cleavage turned out to be 0.157.
Under G34A A83U stands 0.0831; under G34A A71C, 0.0604.
On to G34C C66A, for which the self-cleavage came to 0.35.
With G34C C66U, the self-cleavage is 0.266.
In the case of G34U C57U, the self-cleavage was found to be 0.174.
With G34A G39A, the self-cleavage stood at 0.198.
The result for G34A C49U reads 0.3; that for G34A C49A, 0.0852.
Under G34A A45G stands 0.199.
For the variant G34A A45C, the self-cleavage turned out to be 0.299.
As for G34A A51U, the self-cleavage came out at 0.174.
For G34A A51G, the self-cleavage was 0.0504.
Consider G34A G73C, for which the self-cleavage is 0.147.
Under G34C G82U stands 0.0652; under G34C G82A, 0.0308; under G34U U79C, 0.201.
Under G34U U79A stands 0.138; under G34U A87U, 0.141; under G34U A87C, 0.119.
As to G34U A87G, the self-cleavage is 0.122.
The result for G35A A71C reads 0.125; that for G35A A71U, 0.389.
The result for G34U A43C reads 0.243; that for G34U A43G, 0.0978.
Turning to G34U A43U, the self-cleavage is 0.104.
As to G34C G59C, the self-cleavage turned out to be 0.0811.
The result for G34C G59U reads 0.0415; that for G35A C63U, 0.91.
In the case of G35A C63A, the self-cleavage was 0.332.
Under G34C C41A stands 0.233.
In the case of G34C C41U, the self-cleavage worked out at 0.0378.
The result for G34C C48G reads 0.162; that for G34U A71G, 0.154.
The result for G34U A71U reads 0.208; that for G34A G54C, 0.151.
For G34A G54U, the self-cleavage is 0.17.
For the variant G34C G73A, the self-cleavage stood at 0.106.
Under G34C G73C stands 0.17; under G34C C85U, 0.277.
Under G35A U37A stands 0.0898.
Regarding G35A U37G, the self-cleavage was determined as 0.163.
In the case of G35A U37C, the self-cleavage came to 0.396.
In the case of G34C G54A, the self-cleavage stood at 0.166.
For G34U G82U, the self-cleavage was determined as 0.0631.
The result for G34U G82C reads 0.138; that for G34U G68C, 0.322.
Take G34U G68U: the self-cleavage came to 0.0966.
Consider G34A U37G, for which the self-cleavage was found to be 0.219.
Regarding G35A C36U, the self-cleavage came out at 0.0817.
As for G35A C36G, the self-cleavage came out at 0.35.
Consider G34A A87U, for which the self-cleavage turned out to be 0.196.
The result for G34A U46A reads 0.121; that for G35A U47G, 0.443; that for G35A U47C, 0.489.
Take G34A G76U: the self-cleavage was found to be 0.269.
For the variant G34A G76A, the self-cleavage stood at 0.257.
Under G34C G35A stands 0.115; under G34C G35U, 0.306; under G34U G40C, 0.0415.
With G34U G40A, the self-cleavage is 0.0542.
In the case of G35A A42G, the self-cleavage worked out at 0.17.
The result for G34C C63G reads 0.0378; that for G34C C63A, 0.166; that for G34A G40A, 0.181.
Under G34A G40C stands 0.0482; under G35A A78G, 0.138; under G35A A78U, 0.253.
The result for G34A G80C reads 0.0819; that for G34A G80U, 0.0903.
As for G35A A87G, the self-cleavage was determined as 0.473.
G35A A87C: the self-cleavage is 0.444.
The result for G34C U60C reads 0.244.
Regarding G34C U60G, the self-cleavage came out at 0.0978.
G34U G53U: the self-cleavage was 0.223.
The result for G34U C63A reads 0.164; that for G34U C63U, 0.166; that for G35A U46A, 0.332.
Take G34A U47C: the self-cleavage was determined as 0.
Under G35A G55U stands 0.577; under G35A G55A, 0.736; under G34U G81U, 0.18.
Under G34C C64G stands 0.306; under G34C C64U, 0.271; under G34A A77C, 0.095.
Consider G34A A77G, for which the self-cleavage is 0.0639.
G35A C85A: the self-cleavage is 0.644.
Take G35A C85G: the self-cleavage amounted to 0.643.
For G34C C57A, the self-cleavage worked out at 0.288.
For G34C U47C, the self-cleavage came to 0.185.
G34U A45C: the self-cleavage stood at 0.117.
As to G34U A45G, the self-cleavage stood at 0.0652.
For the variant G35A G82C, the self-cleavage worked out at 0.266.
As for G35A G82A, the self-cleavage was 0.265.
Regarding G35A G68C, the self-cleavage turned out to be 0.676.
As to G35A G68U, the self-cleavage is 0.584.
The result for G35A G68A reads 0.496; that for G35A G76U, 0.902.
Under G35A G76C stands 0.708; under G34U G67C, 0.22.
